Assay results taken from US9057734B2, “Optogenetic probes for measuring membrane potential” (President and Fellows of Harvard College, priority 2010, dated 2015).

Tests used:
neurons = test: Light-induced photocurrent and perturbation of membrane potential in neurons; type: cell-based, rat; settings: I=1800 W/cm2, TIR mode
From the text: Under illumination conditions typically used for imaging neural activity (I=1800 W/cm2 in total internal reflection (TIR) mode), the light-induced outward photocurrent was typically 10 pA in neurons expressing Arch 3 WT. Under current-clamp conditions this photocurrent shifted the resting potential of the neurons by up to −20 mV. For neurons near their activation threshold, this photocurrent could suppress firing (FIG. 9A), so we explored the non-pumping variant D95N as a voltage indicator in neurons.
Whole-cell current clamp recordings were obtained from mature neurons under the same conditions used for HEK cells recordings. Series resistance and pipette capacitance were corrected. Only neurons having resting potentials between −50 and −70 mV were used in the analysis.

HEK-293 cells = test: Fluorescence versus membrane potential under whole-cell voltage clamp (ramp, step, frequency response, noise); type: cell-based, human
Description: Fluorescence of Arch 3 in HEK 293 cells was readily imaged in an inverted fluorescence microscope with red illumination (λ=640 nm, I=540 W/cm^2), a high numerical aperture objective, a Cy5 filter set, and an EMCCD camera. […] Cells not expressing Arch were not fluorescent.
HEK-293 cells were grown at 37° C., 5% CO2, in DMEM supplemented with 10% FBS and penicillin-streptomycin. Plasmids were transfected using LIPOFECTAMINE™ and PLUS reagent (Invitrogen) following the manufacturer's instructions, and assayed between 48-72 hours later. The day before recording, cells were re-plated onto glass-bottom dishes (MatTek) at a density of ˜5000 cells/cm^2.
The concentration of endogenous retinal in the HEK cells was not known, so the cells were supplemented with retinal by diluting stock retinal solutions (40 mM, DMSO) in growth medium to a final concentration of 5 μM, and then placing the cells back in the incubator for 1-3 hours. All imaging and electrophysiology were performed in Tyrode's buffer (containing, in mM: 125 NaCl, 2 KCl, 3 CaCl2, 1 MgCl2, 10 HEPES, 30 glucose pH 7.3, and adjusted to 305-310 mOsm with sucrose). Only HEK cells having reversal potentials between −10 and −40 mV were included in the analysis.
Simultaneous fluorescence and whole-cell patch clamp recordings were acquired on a home-built, inverted epifluorescence microscope at room temperature. A diode laser operating at 100 mW, 640 nm (CrystaLaser, DL638-100-O) provided wide-field illumination at an intensity typically between 500-2000 W/cm^2. To minimize background signal from out-of-focus debris, illumination was often performed in through-the-objective total internal reflection fluorescence (TIRF) mode. Fluorescence emission was collected using a 60×, 1.45 NA oil immersion objective (Olympus), and separated from scattered excitation using a 660-760 nm bandpass emission filter (Chroma). For fast imaging of dynamic fluorescence responses and action potentials, images were acquired on an Andor iXon^+ 860 camera operating at up to 2,000 frames/s (using a small region of interest and pixel binning). Slower images with higher spatial resolution were acquired on an Andor iXon^+ 897 EMCCD. Custom software written in LabView (National Instruments) was used to synchronize illumination, collection of images, recording of membrane potential and cell current, and application of electrical stimuli to the cell.
Filamented glass micropipettes (WPI) were pulled to a tip resistance of 3-10 MΩ, fire polished, and filled with internal solution (containing, in mM: 125 Potassium gluconate, 8 NaCl, 0.6 MgCl2, 0.1 CaCl2, 1 EGTA, 10 HEPES, 4 Mg-ATP, 0.4 Na-GTP, pH 7.3; adjusted to 295 mOsm with sucrose). The micropipettes were positioned with a Burleigh PCS 5000 micromanipulator. Whole-cell, voltage clamp recordings were acquired using an AxoPatch 200B amplifier (Molecular Devices), filtered at 2 kHz with the internal Bessel filter, and digitized with a National Instruments PCIE-6323 acquisition board at 10 kHz. Ambient 60 Hz noise was removed using a HumBug Noise Eliminator (AutoMate Scientific). For experiments requiring rapid modulation of transmembrane potential, series resistance and whole-cell capacitance were predicted to 95% and corrected to ˜50%. Electrical stimuli were generated using the PCIE-6323 acquisition board and sent to the AXOPATCH™, which then applied these signals in either constant current or constant voltage mode.
To measure fluorescence as a function of membrane potential, a triangle wave was applied, with amplitude from −150 mV to +150 mV and period 12 s, with video recording at 100 ms per frame. A pixel weight matrix was calculated according to Eq. S2 and applied to the movie images to generate a fluorescence number for each frame. These fluorescence values were divided by their minimum value (at V=−150 mV). The result is plotted as a function of Vin FIGS. 7 and 8. […]

HEK cells = test: Photocurrents under 640 nm illumination in voltage-clamped cells; type: cell-based, human
Description: Measurements of photocurrents were performed on HEK cells held in voltage clamp at 0 mV while being exposed to brief (200 ms) pulses of illumination at 640 nm at an intensity of 1800 W/cm^2.

B1: Arch 3 WT: Archaerhodopsin 3, light-driven proton pump from Halorubrum sodomense, used as fluorescent voltage indicator (protein)
chain: MDPIALQAGYDLLGDGRPETLWLGIGTLLMLIGTFYFLVRGWGVTDKDAREYYAVTILVPGIASAAYLSMFFGIGLTEVTVGGEMLDIYYARYADWLFTTPLLLLDLALLAKVDRVTIGTLVGVDALMIVTGLIGALSHTAIARYSWWLFSTICMIVVLYFLATSLRSAAKERGPEVASTFNTLTALVLVLWTAYPILWIIGTEGAGVVGLGIETLLFMVLDVTAKVGFGFILLRSRAILGDTEAPEPSAGADVSAAD
modifications: Halorubrum sodomense
notes: Archaerhodopsin 3, light-driven proton pump from Halorubrum sodomense, used as fluorescent voltage indicator
neurons
  light-induced outward photocurrent: ~10 pA
HEK-293 cells; HEK cells
  voltage steps resolved/reported: 10 mV
HEK-293 cells; continuous 10-minute exposure, 640 nm, 540 W/cm2
  photobleaching: 17%
HEK-293 cells; sinusoidal membrane potential, f=1 kHz
  fluorescence oscillation amplitude retained relative to low-frequency amplitude: 55%
HEK-293 cells; steps between −70 mV and +30 mV
  response time to a step in membrane potential: < 0.5 ms
HEK-293 cells; time resolution of imaging system, rising and falling edge
  response of fluorescence to a step in membrane potential, time: ≤ 500 μs
HEK-293 cells; whole-cell voltage clamp
  increase of fluorescence (fold/factor) between −150 mV and +150 mV: 2
HEK cells; 640 nm, HEK cells
  photocurrents induced by imaging laser: 10-20 pA
HEK cells; illumination at 640 nm
  photocurrent / photoinduced proton pumping: retains the photoinduced proton-pumping
